Assay [1] addresses T1, PCSK9Δhelix (human PCSK9 lacking the P' helix, His-tagged) (human, UniProt Q8NBP7 31-152; Q8NBP7 168-692).
T1 construct: Construct M1-Q692 with an engineered TEV site (Y166 and R167 deleted, ENLYFQS inserted between R165 and A168); also called His-PCSK9Δhelix; C-terminal (His)8-tagged PCSK9Δhelix
The assay can be described thus: TR-FRET competition; His-PCSK9Δhelix with Ab20 as competitor ligand. For orientation: TR-FRET usually uses a lanthanide donor and a delayed reading to cut background.

For assay [2], the target named is T1, PCSK9Δhelix (human PCSK9 lacking the P' …). Briefly: SPR (Biacore), His-tagged PCSK9Δhelix captured on NTA chip. A general note: Surface plasmon resonance follows binding to a sensor surface in real time, without labels.
In assay [3] the target is T2, PCSK9 (proprotein convertase subtilisin/kexin type 9), His-tagged, full-length (human, UniProt Q8NBP7 31-692).
T2 construct: Captured by the His tag (SPR Methods 1 and 2), amine-coupled (Method 3), or His-tagged in TR-FRET; also called His-PCSK9
Briefly: TR-FRET competition; competitor EGF(A)-Fc binding to His-PCSK9.

Assay [4] addresses T3, PCSK9Δhelix (human, UniProt Q8NBP7 31-152; Q8NBP7 168-692).
T3 construct: Made by TEV cleavage of human PCSK9 M1-Q692 with an engineered TEV site; The new N-terminus of the catalytic domain is S-A168; also called His-PCSK9Δhelix; PCSK9 lacking the P' helix
Briefly: TR-FRET competition; competitor Ab20 binding to His-PCSK9Δhelix.

Assay [5] addresses T4, His-tagged, full-length human PCSK9 (proprotein convertase subtilisin/kexin type 9) (human, UniProt A8T644 31-152; Q8NBP7 153-692).
T4 construct: also called His-PCSK9; C-terminal (His)8-tagged PCSK9
Briefly: TR-FRET competition; His-PCSK9 with EGF(A)-Fc as competitor ligand.

Assay [6] deals with T1, PCSK9Δhelix (human PCSK9 lacking the P' …). Briefly: TR-FRET competition; His-PCSK9Δhelix with Ab20 as competitor ligand. This is another data set of the same source.
Assay [7] addresses T4, His-tagged, full-length human PCSK9 …. Briefly: TR-FRET competition; His-PCSK9 with LDLR-Fc as competitor ligand.
Assay [8] has as its target T3, PCSK9Δhelix. The assay can be described thus: SPR, Method 3 (SensiQ Pioneer FE, target amine-coupled, gradient injection).
The target in assay [9] is T2, PCSK9 (proprotein convertase …). The description is as above.
The target in assay [10] is T3, PCSK9Δhelix. Briefly: TR-FRET competition; competitor Ab20 binding to His-PCSK9Δhelix. The source holds these as a separate data set.
Assay [11] deals with T2, PCSK9 (proprotein convertase …). Briefly: TR-FRET competition; competitor EGF(A)-Fc binding to His-PCSK9. The source holds these as a separate data set.
Assay [12] deals with T3, PCSK9Δhelix. The assay can be described thus: TR-FRET competition; competitor Ab20 binding to His-PCSK9Δhelix. This is another data set of the same source.
Assay [13] deals with T2, PCSK9 (proprotein convertase …). Briefly: TR-FRET competition; competitor EGF(A)-Fc binding to His-PCSK9. The source holds these as a separate data set.

A word on the IC50: it is the point on the concentration scale where inhibition reaches its midpoint. Read a low IC50 as greater potency. A word on the Kd: it is the concentration at which binding is half-saturated. The low end stands for a tighter complex, the high end for a looser complex.

Where two headings read alike, the source gives them in different places. Bridge positions count the residues as written; N and C are the ends. Square brackets hold non-standard residues; d marks the D form. hArg = N=C(N)NCCCC[C@H](N)C(=O)O Where only a bound is given, the exact number is not on record here.

T1 sequence (Q8NBP7 31-152, stated change not applied, chain 1 of 2): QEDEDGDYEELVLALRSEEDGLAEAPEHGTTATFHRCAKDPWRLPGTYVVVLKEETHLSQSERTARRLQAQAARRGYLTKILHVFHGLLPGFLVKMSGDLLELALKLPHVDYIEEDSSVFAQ
T1 sequence (Q8NBP7 other isoform, or with tags, fused parts or gaps mutant, chain 2 of 2): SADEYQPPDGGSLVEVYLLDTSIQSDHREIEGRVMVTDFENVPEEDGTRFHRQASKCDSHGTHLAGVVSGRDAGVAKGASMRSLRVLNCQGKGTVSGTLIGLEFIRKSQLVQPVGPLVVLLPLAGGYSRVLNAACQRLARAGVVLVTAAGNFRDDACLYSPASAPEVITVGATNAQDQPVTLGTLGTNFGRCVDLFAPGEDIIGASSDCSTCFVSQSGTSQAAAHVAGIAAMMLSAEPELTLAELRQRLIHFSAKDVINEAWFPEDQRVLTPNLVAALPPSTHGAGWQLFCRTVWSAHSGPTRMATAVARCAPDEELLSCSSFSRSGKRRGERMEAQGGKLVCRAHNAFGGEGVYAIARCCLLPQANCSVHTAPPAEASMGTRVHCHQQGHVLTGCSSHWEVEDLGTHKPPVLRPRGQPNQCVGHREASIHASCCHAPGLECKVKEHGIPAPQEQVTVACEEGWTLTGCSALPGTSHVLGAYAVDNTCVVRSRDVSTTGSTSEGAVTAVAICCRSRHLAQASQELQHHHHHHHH
T3 sequence (Q8NBP7 31-152, stated change not applied, chain 1 of 2): as the sequence (Q8NBP7 31-152, stated change not applied, chain 1 of 2) above
T3 sequence (Q8NBP7 other isoform, or with tags, fused parts or gaps mutant, chain 2 of 2): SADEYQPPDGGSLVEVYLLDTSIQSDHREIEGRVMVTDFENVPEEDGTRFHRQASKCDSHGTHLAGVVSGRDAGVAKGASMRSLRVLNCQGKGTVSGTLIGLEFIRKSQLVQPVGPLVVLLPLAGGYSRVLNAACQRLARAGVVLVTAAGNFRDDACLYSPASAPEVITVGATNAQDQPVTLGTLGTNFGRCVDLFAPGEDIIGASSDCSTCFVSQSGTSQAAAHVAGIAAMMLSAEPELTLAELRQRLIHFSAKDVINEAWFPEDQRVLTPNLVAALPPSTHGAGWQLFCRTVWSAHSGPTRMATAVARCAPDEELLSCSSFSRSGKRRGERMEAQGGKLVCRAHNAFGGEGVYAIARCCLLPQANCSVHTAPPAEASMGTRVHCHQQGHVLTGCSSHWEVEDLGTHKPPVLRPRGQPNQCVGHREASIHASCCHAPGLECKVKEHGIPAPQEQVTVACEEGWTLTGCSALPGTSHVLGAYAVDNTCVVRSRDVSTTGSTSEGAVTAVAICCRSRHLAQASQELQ
T4 sequence (A8T644 31-152, chain 1 of 2): as the sequence (Q8NBP7 31-152, stated change not applied, chain 1 of 2) above
T4 sequence (A8T644 other isoform, or with tags, fused parts or gaps, chain 2 of 2): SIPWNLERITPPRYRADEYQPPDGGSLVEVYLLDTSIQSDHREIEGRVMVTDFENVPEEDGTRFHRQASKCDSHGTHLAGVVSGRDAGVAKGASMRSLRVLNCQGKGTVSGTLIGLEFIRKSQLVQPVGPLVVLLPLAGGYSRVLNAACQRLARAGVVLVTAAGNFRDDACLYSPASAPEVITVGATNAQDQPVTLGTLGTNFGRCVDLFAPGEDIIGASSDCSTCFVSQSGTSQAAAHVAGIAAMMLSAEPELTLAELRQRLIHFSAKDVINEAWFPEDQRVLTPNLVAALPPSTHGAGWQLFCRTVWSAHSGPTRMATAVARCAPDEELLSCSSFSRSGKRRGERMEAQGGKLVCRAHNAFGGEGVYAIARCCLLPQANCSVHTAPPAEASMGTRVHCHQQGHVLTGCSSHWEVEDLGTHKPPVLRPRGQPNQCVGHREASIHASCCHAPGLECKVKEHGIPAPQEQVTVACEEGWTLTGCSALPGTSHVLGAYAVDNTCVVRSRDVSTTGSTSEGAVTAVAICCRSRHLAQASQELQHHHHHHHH
T2 sequence (Q8NBP7 31-692 limits assumed): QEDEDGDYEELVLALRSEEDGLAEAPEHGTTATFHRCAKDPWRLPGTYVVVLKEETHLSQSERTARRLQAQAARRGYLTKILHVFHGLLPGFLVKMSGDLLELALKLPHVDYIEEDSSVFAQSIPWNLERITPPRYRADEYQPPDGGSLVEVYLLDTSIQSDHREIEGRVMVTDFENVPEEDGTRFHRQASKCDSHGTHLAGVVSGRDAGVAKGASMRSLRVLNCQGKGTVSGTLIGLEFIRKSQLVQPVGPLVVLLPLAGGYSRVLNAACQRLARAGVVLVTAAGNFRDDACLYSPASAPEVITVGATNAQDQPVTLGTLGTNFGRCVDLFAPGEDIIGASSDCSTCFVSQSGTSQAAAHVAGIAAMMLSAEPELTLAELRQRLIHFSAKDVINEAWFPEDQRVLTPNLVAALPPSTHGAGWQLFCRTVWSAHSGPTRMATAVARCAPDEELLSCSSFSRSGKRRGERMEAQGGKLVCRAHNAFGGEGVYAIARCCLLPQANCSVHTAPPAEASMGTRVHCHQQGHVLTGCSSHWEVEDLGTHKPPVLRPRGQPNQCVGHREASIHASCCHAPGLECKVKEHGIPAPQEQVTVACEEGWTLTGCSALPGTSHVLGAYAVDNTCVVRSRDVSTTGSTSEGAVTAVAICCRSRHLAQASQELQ

In [1], Ac-DLMPWNLVRIGLLR-NH2 [Compound 35: Ac-DLMPWNLVRIGLLR-NH2] showed a half-maximal inhibitory concentration (IC50) of 7.9 µM. For the same molecule, the affinity in assay [2], expressed as Kd, was 1.38 µM.
For Ac-LMPWNLVRIGLLR-NH2 [Compound 50: Ac-LMPWNLVRIGLLR-NH2] the same measures were 3.6 µM and 0.47 µM.
Regarding Ac-TVFTSWEEYLDWVGGSGKLWNLGRV-NH2 [Compound 8], the half-inhibitory concentration (IC50) in assay [3] came out at 1.03 µM; in the assay with PCSK9Δhelix [4], 0.049 µM.
On the same counts, the results for Ac-TVFTSWEEYLDWVGSGGKLWNLGRV-NH2 [Compound 9] are 0.39 µM and 0.065 µM.

B1: Compound 231: Ac-ESYPGWNLV(homoR)IGLLR-NH2 (peptide)
peptide: Ac-ESYPGWNLV[hArg]IGLLR-NH2
SMILES: CC[C@H](C)[C@H](NC(=O)[C@H](CCCCNC(=N)N)NC(=O)[C@@H](NC(=O)[C@H](CC(C)C)NC(=O)[C@H](CC(N)=O)NC(=O)[C@H](Cc1c[nH]c2ccccc12)NC(=O)CNC(=O)[C@@H]1CCCN1C(=O)[C@H](Cc1ccc(O)cc1)NC(=O)[C@H](CO)NC(=O)[C@H](CCC(=O)O)NC(C)=O)C(C)C)C(=O)NCC(=O)N[C@@H](CC(C)C)C(=O)N[C@@H](CC(C)C)C(=O)N[C@@H](CCCNC(=N)N)C(N)=O
B1: the IC50 in assay [5] is 15.8 µM; in assay [6], 1.49 µM; in [7], > 50 µM.

B2: Compound 227: Ac-ESFPGWNLV(homoR)IGLLR-NH2 (peptide)
peptide: Ac-ESFPGWNLV[hArg]IGLLR-NH2
SMILES: CC[C@H](C)[C@H](NC(=O)[C@H](CCCCNC(=N)N)NC(=O)[C@@H](NC(=O)[C@H](CC(C)C)NC(=O)[C@H](CC(N)=O)NC(=O)[C@H](Cc1c[nH]c2ccccc12)NC(=O)CNC(=O)[C@@H]1CCCN1C(=O)[C@H](Cc1ccccc1)NC(=O)[C@H](CO)NC(=O)[C@H](CCC(=O)O)NC(C)=O)C(C)C)C(=O)NCC(=O)N[C@@H](CC(C)C)C(=O)N[C@@H](CC(C)C)C(=O)N[C@@H](CCCNC(=N)N)C(N)=O
Take B2: the half-maximal inhibitory concentration (IC50) in assay [5] was 23.2 µM; in assay [6], 2.51 µM; in [7], > 50 µM.

B3: Compound 230: Ac-DSYPGWNLV(homoR)IGLLR-NH2 (peptide)
peptide: Ac-DSYPGWNLV[hArg]IGLLR-NH2
SMILES: CC[C@H](C)[C@H](NC(=O)[C@H](CCCCNC(=N)N)NC(=O)[C@@H](NC(=O)[C@H](CC(C)C)NC(=O)[C@H](CC(N)=O)NC(=O)[C@H](Cc1c[nH]c2ccccc12)NC(=O)CNC(=O)[C@@H]1CCCN1C(=O)[C@H](Cc1ccc(O)cc1)NC(=O)[C@H](CO)NC(=O)[C@H](CC(=O)O)NC(C)=O)C(C)C)C(=O)NCC(=O)N[C@@H](CC(C)C)C(=O)N[C@@H](CC(C)C)C(=O)N[C@@H](CCCNC(=N)N)C(N)=O
In the case of B3, the IC50 was 24.2 µM in [5], 2.42 µM in assay [6] and > 50 µM in assay [7].
As to Ac-TVFTSWEEYLDWVGSGKLWNL-NH2 [Compound 6], the values for the IC50 (in assay [3]; with PCSK9Δhelix [4]) were 0.74 µM and 10 µM, respectively.
For Ac-TVFTSWEEYLDWVGSGKLWN-NH2 [Compound 7] the same measures were 0.5 µM and 18.6 µM.
Ac-PWNLVRIGLLR-NH2 [Compound 52]: the figures for the equilibrium dissociation constant (Kd) (in the assay with PCSK9Δhelix [8]; in assay [9]) were 2.6 µM and 17.9 µM, respectively. Moreover, the IC50 with PCSK9Δhelix [10] is 10.2 µM; in assay [11] it was > 50 µM.
Turning to Ac-TVFTSWEEYLDWVGGSGCWNLKRIGSQGC-NH2 (disulfide 18-29 (inferred), Two Cys, disulfide-cyclized) [Compound 13], the figures for the half-inhibitory concentration (IC50) (in the assay with PCSK9Δhelix [12]; in assay [13]) were 0.001 µM and 0.01 µM, respectively.
On the same counts, the results for Ac-TVFTSWEEYLDWVGSGGCWNLKRIGSQGC-NH2 (disulfide 18-29 (inferred), Two Cys, disulfide-cyclized) [Compound 14] are 0.001 µM and 0.009 µM.
Ac-TVFTSWEEYLDWVGSGKLWNLG-NH2 [Compound 5]: the IC50 in assay [3] turned out to be 0.72 µM; with PCSK9Δhelix [4], 11.1 µM.
On to Ac-LMPWNLVRIGLLR-NH2 [Compound 50], for which the Kd worked out at 1.6 µM in the assay with PCSK9Δhelix [8] and 16.1 µM in assay [9]. The IC50 was 2.66 µM in the assay with PCSK9Δhelix [10] and > 50 µM in [11].
With Ac-WNLVRIGLLR-NH2 [Compound 53: Ac-WNLVRIGLLR-NH2], in assay [1], the IC50 was 52.4 µM. The molecule further came in with a Kd in [2] of 14 µM.
Consider Ac-TVFTSWEEYLDWVGSGKLWNLGRV-NH2 [Compound 1], for which the IC50 in [3] turned out to be 0.388 µM; with PCSK9Δhelix [4], 0.021 µM.
For Ac-TVFTSWEEYLDWVGSGKLWNLGR-NH2 [Compound 4] the same measures were 0.49 µM and 1.52 µM.
Molecule Ac-PWNLVRIGLLR-NH2 [Compound 52: Ac-PWNLVRIGLLR-NH2] showed an IC50 in assay [1] of 15.9 µM. The Kd in assay [2] worked out at 2.1 µM.
For Ac-MPWNLVRIGLLR-NH2 [Compound 51: Ac-MPWNLVRIGLLR-NH2] the same measures were 6.6 µM and 1.4 µM.
For the molecule Ac-MPWNLVRIGLLR-NH2 [Compound 51], the figures for the dissociation constant Kd (with PCSK9Δhelix [8]; in assay [9]) were 2.7 µM and 26.2 µM, respectively. Further, the IC50 is 4.69 µM with PCSK9Δhelix [10] and > 50 µM in assay [11].
On the same counts, the results for Ac-WNLVRIGLLR-NH2 [Compound 53] are 33.8 µM, 223 µM, 33.1 µM and > 50 µM.
As to Ac-TVFTSWEEYLDWVGSGGCRLPWNLQRIGLPC-NH2 (disulfide 18-31 (inferred), Two Cys, disulfide-cyclized) [Compound 25], the IC50 is 0.083 µM in the assay with PCSK9Δhelix [12] and 0.781 µM in [13].
On the same counts, the results for Ac-TVFTSWEEYLDWVGSGGCFLPWNLQRIGLLC-NH2 (disulfide 18-31 (inferred), Two Cys, disulfide-cyclized) [Compound 38] are 0.003 µM and 0.471 µM.
Consider Ac-TVFTSWEEYLDWVGSGCWNLGRIGSQGC-NH2 (disulfide 17-28 (inferred), Two Cys, disulfide-cyclized) [Compound 11], for which the 50% inhibitory concentration (IC50) in assay [13] came to 0.34 µM.
Still for that read-out and setting: the result for Ac-TVFTSWEEYLDWVGSGCWNLKRVGSQGC-NH2 (disulfide 17-28 (inferred), Two Cys, disulfide-cyclized) [Compound 12] reads 0.19 µM.
